From ChEMBL document CHEMBL4033784, “Discovery of 1,5-Diphenylpyrazole-3-Carboxamide Derivatives as Potent, Reversible, and Selective Monoacylglycerol Lipase (MAGL) Inhibitors” (J Med Chem, 2018)

Substrate: Cc1cccc(Cn2nc(C(=O)N3CCC(Cc4ccccc4)CC3)cc2-c2ccc(O)cc2)c1
Settings: Homo sapiens
Description: Competitive inhibition of recombinant human MAGL assessed as substrate Km using 4-NPA as substrate after 30 mins by Michaelis-Menten plot analysis

B1: Monoglyceride lipase (Homo sapiens), Q99685 (protein)
chain: MPEESSPRRTPQSIPYQDLPHLVNADGQYLFCRYWKPTGTPKALIFVSHGAGEHSGRYEELARMLMGLDLLVFAHDHVGHGQSEGERMVVSDFHVFVRDVLQHVDSMQKDYPGLPVFLLGHSMGGAIAILTAAERPGHFAGMVLISPLVLANPESATTFKVLAAKVLNLVLPNLSLGPIDSSVLSRNKTEVDIYNSDPLICRAGLKVCFGIQLLNAVSRVERALPKLTVPFLLLQGSADRLCDSKGAYLLMELAKSQDKTLKIYEGAYHVLHKELPEVTNSVFHEINMWVSQRTATAGTASPP
Km: 210 µM
